Measurements from IntAct's records for PubMed 30026228.

B1: Zinc fingers and homeoboxes protein 2 (Homo sapiens), Q9Y6X8 (parent)
chain: MASKRKSTTPCMVRTSQVVEQDVPEEVDRAKEKGIGTPQPDVAKDSWAAELENSSKENEVIEVKSMGESQSKKLQGGYECKYCPYSTQNLNEFTEHVDMQHPNVILNPLYVCAECNFTTKKYDSLSDHNSKFHPGEANFKLKLIKRNNQTVLEQSIETTNHVVSITTSGPGTGDSDSGISVSKTPIMKPGKPKADAKKVPKKPEEITPENHVEGTARLVTDTAEILSRLGGVELLQDTLGHVMPSVQLPPNINLVPKVPVPLNTTKYNSALDTNATMINSFNKFPYPTQAELSWLTAASKHPEEHIRIWFATQRLKHGISWSPEEVEEARKKMFNGTIQSVPPTITVLPAQLAPTKVTQPILQTALPCQILGQTSLVLTQVTSGSTTVSCSPITLAVAGVTNHGQKRPLVTPQAAPEPKRPHIAQVPEPPPKVANPPLTPASDRKKTKEQIAHLKASFLQSQFPDDAEVYRLIEVTGLARSEIKKWFSDHRYRCQRGIVHITSESLAKDQLAIAASRHGRTYHAYPDFAPQKFKEKTQGQVKILEDSFLKSSFPTQAELDRLRVETKLSRREIDSWFSERRKLRDSMEQAVLDSMGSGKKGQDVGAPNGALSRLDQLSGAQLTSSLPSPSPAIAKSQEQVHLLRSTFARTQWPTPQEYDQLAAKTGLVRTEIVRWFKENRCLLKTGTVKWMEQYQHQPMADDHGYDAVARKATKPMAESPKNGGDVVPQYYKDPKKLCEEDLEKLVTRVKVGSEPAKDCLPAKPSEATSDRSEGSSRDGQGSDENEESSVVDYVEVTVGEEDAISDRSDSWSQAAAEGVSELAESDSDCVPAEAGQA

Variants of: B1
Conditions: with vhl_human VHL

| Variant | effect of a mutation on the interaction |
| --- | --- |
| P464A | decreasing interaction strength |
| P427A;P440A;P464A | disrupting interaction strength |
| P440A | decreasing interaction strength |
| P427A | decreasing interaction strength |
